Source: paper PMC4763987, “Calcium-induced tetramerization and zinc chelation shield human calprotectin from degradation by host and bacterial extracellular proteases† †Electronic supplementary information (ESI) available: Supplementary Tables S1–S6, supplementary Fig. S1–S22. Data for protease activity controls are included …” (Chemical Science, 2015)
Changes are numbered by the printed parent chain. Numbers in names are those of the source.

T1: S100A9(C3S) subunit of CP-Ser (human, UniProt P06702 1-114, C3S)
T1 construct: S100A9 (calgranulin B, MRP-14), human, 114 amino acids; also called β subunit
T1 sequence (looked up): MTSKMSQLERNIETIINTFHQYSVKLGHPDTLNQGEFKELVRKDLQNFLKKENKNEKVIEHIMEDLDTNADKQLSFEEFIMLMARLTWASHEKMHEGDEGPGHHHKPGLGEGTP

B1: S100A8(C42S)(I60E) subunit (natural protein, human, UniProt P05109 1-93, looked up)
chain: MLTELEKALNSIIDVYHKYSLIKGNFHAVYRDDLKKLLETESPQYIRKKGADVWFKELDENTDGAVNFQEFLILVIKMGVAAHKKSHEESHKE
notes: S100A8, human, 93 amino acids; also called S100A8 subunit of I60E
B2: S100A8(C42S)(I60K) subunit (natural protein, human, UniProt P05109 1-93, looked up)
chain: B1 chain with E60K
notes: S100A8, human, 93 amino acids; also called S100A8 subunit of I60K

Target: T1, S100A9(C3S) subunit of CP-Ser
Test: co-purification; subunits overexpressed and purified as described previously (ref. 19); the protocol affords the S100A8/S100A9 heterodimer; subunits judged by gel electrophoresis and mass spectrometry

Row | Binder | binding result
1 | B1 | binds
2 | B2 | binds
